The text below walks through data of publication PMC8666670, “Malonyl-acyl carrier protein decarboxylase activity promotes fatty acid and cell envelope biosynthesis in Proteobacteria” (The Journal of Biological Chemistry, 2021).

The target in experiment [1] is MadB(N43A) (S. oneidensis). As to the kind of experiment: not stated; dimeric structures of the MadB catalytic loop mutants, data in Table S3.
Experiment [2] addresses MadB(T49A) (S. oneidensis). The description is as above.
Experiment [3] deals with MadB(D79A) (S. oneidensis). The description is as above.
The target of experiment [4] is MadB, standalone hot dog malonyl-ACP decarboxylase of Shewanella oneidensis (S. oneidensis). As to the kind of experiment: SEC; gel filtration chromatography of the purified recombinant protein. For orientation: Size exclusion chromatography separates by hydrodynamic size, large species first.
Experiment [5] shares this target. As to the kind of experiment: AUC; sedimentation analysis (methods: sedimentation velocity, 50,000 rpm, interference optics), 0.02 M Tris pH 7.5, 0.5 M NaCl, 20 °C, no reducing agents.
Experiment [6] deals with MadB(S54A) (S. oneidensis). As to the kind of experiment: not stated; dimeric structures of the MadB catalytic loop mutants, data in Table S3.
The target in experiment [7] is MadB(N45A) (S. oneidensis). The experiment is described as above.
Experiment [8] concerns the target MadB(H47A) (S. oneidensis). The description is as above.

For orientation: stoichiometry N means a count of units in the complex or per binding partner. MadB(N43A) (enzyme) yielded a stoichiometry N in experiment [1] of 2.
With MadB(T49A) (enzyme), the stoichiometry N in experiment [2] came out at 2.
Consider MadB(D79A) (enzyme), for which the stoichiometry N in experiment [3] was 2.
For “MadB, standalone hot dog malonyl-ACP decarboxylase of Shewanella oneidensis (enzyme)”, the stoichiometry N in experiment [4] and in experiment [5] was 2 in each case.
As to MadB(S54A) (enzyme), in experiment [6], the stoichiometry N amounted to 2.
Consider MadB(N45A) (enzyme), for which the stoichiometry N in experiment [7] turned out to be 2.
MadB(H47A) (enzyme) had a stoichiometry N in experiment [8] of 2.
